Results as given in paper PMC4259310.

Columns and labels:
[1] = target: Snake Adenovirus 1 (SnAdV-1) fibre head domain, construct 234-345, native (Snake Adenovirus 1 (SnAdV-1)); experiment: crystal structure
[2] = target: Snake Adenovirus 1 (SnAdV-1) fibre protein construct 171-345 (Snake Adenovirus 1 (SnAdV-1)); experiment: crystal structure

## Snake Adenovirus 1 (SnAdV-1) fibre head domain, construct 234-345, native (domain or fragment)
[1]
  stoichiometry N: 3

## Snake Adenovirus 1 (SnAdV-1) fibre protein construct 171-345 (domain or fragment)
[2]
  stoichiometry N: 3
